Data published in patent US20260166139A1.
Several values for one entry are separate records, joined by “and”; a condition that tells them apart may be missing. Equal entries are not always repeated.

Experiments:
[1] = biological target: human CTLA4 (human) (UniProt P16410); assay: ELISA, coat CTLA4 0.5 ug/ml; antibody 0 (blank)
[2] = biological target: CTLA4-mFc; assay: competitive ELISA, CTLA4-mFc coated, competitor B7/2-His; antibody 3 µg/ml diluted 1:243
[3] = biological target: CTLA4-mFc; assay: competitive ELISA, competitor B7-1; control run with 8D2H2L2
[4] = biological target: human CTLA4 (human) (UniProt P16410); assay: ELISA, coat CTLA4 0.5 ug/ml; antibody 1:9 (start 1 ug/ml)
[5] = biological target: murine CTLA4 (murine) (UniProt P09793); assay: ELISA on coated CTLA4, source Mouse (row of 8D2H1L1)
[6] = biological target: CTLA4-mFc; assay: competitive ELISA, competitor B7-2; control run with 8D2H2L2
[7] = biological target: CTLA4-mFc; assay: competitive ELISA, B7/1-hFc coated (competitor), CTLA4-mFc added; antibody 5 µg/ml diluted 1:243
[8] = biological target: CTLA4-mFc; assay: competitive ELISA, B7/1-hFc coated (competitor), CTLA4-mFc added; antibody 5 µg/ml diluted 1:3
[9] = biological target: CTLA4-mFc; assay: competitive ELISA, B7/1-hFc coated (competitor), CTLA4-mFc added; antibody 5 µg/ml
[10] = biological target: human CTLA4 (human) (UniProt P16410); assay: ELISA, coat human CTLA4 0.5 ug/ml; antibody 1 ug/ml
[11] = biological target: CTLA4-mFc; assay: competitive ELISA, B7/1-hFc coated (competitor), CTLA4-mFc added; antibody 5 µg/ml diluted 1:3; remark: listed apart in the source
[12] = biological target: CTLA4-mFc; assay: competitive ELISA, competitor B7-2; control run with 8D2H2L15
[13] = biological target: CTLA4-mFc; assay: competitive ELISA, CTLA4-mFc coated, competitor B7/2-His; antibody 0 (no antibody)
[14] = biological target: CTLA4-mFc; assay: competitive ELISA, CTLA4-mFc coated, competitor B7/2-His; antibody 1.5 µg/ml diluted 1:9
[15] = biological target: CTLA4-mFc; assay: competitive ELISA, competitor B7-2; control run with 8D2(Re)
[16] = biological target: CTLA4-mFc; assay: competitive ELISA, competitor B7-2; control run with 8D2H2L17
[17] = biological target: human CTLA4 (human) (UniProt P16410); assay: ELISA, coat CTLA4 0.5 ug/ml; antibody 1:243 (start 1 ug/ml)
[18] = biological target: CTLA4-mFc; assay: competitive ELISA, competitor B7-2; control run with 8D2H1L1
[19] = biological target: CTLA4-mFc; assay: competitive ELISA, competitor B7-2; control run with 8D2H3L3
[20] = biological target: CTLA4-mFc; assay: competitive ELISA, B7/1-hFc coated (competitor), CTLA4-mFc added; antibody 0 (no antibody)
[21] = biological target: human CTLA4 (human) (UniProt P16410); assay: ELISA, coat human CTLA4 0.5 ug/ml; antibody 1 ug/ml; remark: listed apart in the source
[22] = biological target: murine CTLA4 (murine) (UniProt P09793); assay: ELISA on coated CTLA4, source Mouse (row of 8D2)
[23] = biological target: human CTLA4 (human) (UniProt P16410); assay: ELISA on coated CTLA4, source Human (row of 8D2H3L3)
[24] = biological target: CTLA4-mFc; assay: competitive ELISA, CTLA4-mFc coated, competitor B7/2-His; antibody 3 µg/ml
[25] = biological target: CTLA4-mFc; assay: competitive ELISA, competitor B7-1; control run with 8D2H2L17
[26] = biological target: human CTLA4 (human) (UniProt P16410); assay: ELISA, coat CTLA4 0.5 ug/ml; antibody 1:729 (start 1 ug/ml)
[27] = biological target: human CTLA4 (human) (UniProt P16410); assay: ELISA on coated CTLA4, source Human (row of 8D2H2L2)
[28] = biological target: CTLA4-mFc; assay: competitive ELISA, B7/1-hFc coated (competitor), CTLA4-mFc added; antibody 5 µg/ml; remark: listed apart in the source
[29] = biological target: human CTLA4 (human) (UniProt P16410); assay: ELISA, coat human CTLA4 0.5 ug/ml; antibody 1:27 (start 1 ug/ml)
[30] = biological target: CTLA4-mFc; assay: competitive ELISA, B7/1-hFc coated (competitor), CTLA4-mFc added; antibody 5 µg/ml diluted 1:9
[31] = biological target: monkey CTLA4-hFc (monkey); assay: ELISA, coat monkey CTLA4-hFc 0.25 ug/ml; antibody 0 (blank)
[32] = biological target: CTLA4-mFc; assay: competitive ELISA, competitor B7-1; control run with 8D2H3L3
[33] = biological target: CTLA4-mFc; assay: competitive ELISA, B7/1-hFc coated (competitor), CTLA4-mFc added; antibody 5 µg/ml diluted 1:81
[34] = biological target: human CTLA4 (human) (UniProt P16410); assay: ELISA, coat human CTLA4 0.5 ug/ml; antibody 1:729 (start 1 ug/ml)
[35] = biological target: CTLA4-mFc; assay: competitive ELISA, CTLA4-mFc coated, competitor B7/2-His; antibody 1 µg/ml diluted 1:81
[36] = biological target: CTLA4-mFc; assay: competitive ELISA, B7/1-hFc coated (competitor), CTLA4-mFc added; antibody 0 (no antibody); remark: listed apart in the source
[37] = biological target: CTLA4-mFc; assay: competitive ELISA, B7/1-hFc coated (competitor), CTLA4-mFc added; antibody 5 µg/ml diluted 1:729
[38] = biological target: human CTLA4 (human) (UniProt P16410); assay: ELISA, coat human CTLA4 0.5 ug/ml; antibody 1:3 (start 1 ug/ml)
[39] = biological target: human CTLA4 (human) (UniProt P16410); assay: ELISA, coat human CTLA4 0.5 ug/ml; antibody 1:243 (start 1 ug/ml)
[40] = biological target: CTLA4-mFc; assay: competition ELISA, coat B7/1-hFc 0.2 ug/ml (competitor), CTLA4-mFc 0.3 ug/ml detected; antibody 0 (no antibody)

Sequence of human CTLA4 (human) (P16410 36-161 limits assumed): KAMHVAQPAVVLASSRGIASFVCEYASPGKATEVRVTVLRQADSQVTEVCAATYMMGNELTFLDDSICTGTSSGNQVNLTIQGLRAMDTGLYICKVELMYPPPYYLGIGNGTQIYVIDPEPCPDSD
Sequence of CTLA4-mFc (chain, as listed by the source limits assumed): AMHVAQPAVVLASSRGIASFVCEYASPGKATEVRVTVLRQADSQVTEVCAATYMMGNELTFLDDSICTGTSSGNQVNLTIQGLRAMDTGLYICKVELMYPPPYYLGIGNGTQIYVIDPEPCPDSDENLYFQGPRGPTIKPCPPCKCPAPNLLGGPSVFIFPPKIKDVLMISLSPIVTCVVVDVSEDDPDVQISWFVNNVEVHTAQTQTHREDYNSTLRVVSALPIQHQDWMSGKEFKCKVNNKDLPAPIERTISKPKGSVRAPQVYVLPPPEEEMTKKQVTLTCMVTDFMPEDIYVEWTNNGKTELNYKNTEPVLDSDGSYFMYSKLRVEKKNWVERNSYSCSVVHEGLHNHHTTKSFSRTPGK
Sequence of control antibody 11.2.1 (VH): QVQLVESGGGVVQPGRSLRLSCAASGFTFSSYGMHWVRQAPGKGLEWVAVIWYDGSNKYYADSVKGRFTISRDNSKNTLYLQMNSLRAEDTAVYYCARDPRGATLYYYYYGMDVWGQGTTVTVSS
Sequence of control antibody 11.2.1 (VL): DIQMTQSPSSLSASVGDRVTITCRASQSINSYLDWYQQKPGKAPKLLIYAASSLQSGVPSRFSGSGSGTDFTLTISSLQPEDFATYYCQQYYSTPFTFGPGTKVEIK

Substance: control antibody 11.2.1
- absorbance at 450 nm [1]: 0.05
- absorbance at 450 nm [2]: 1.24 and 1.21
- EC50 [3]: 1070 pM
- absorbance at 450 nm [4]: 2.69 and 2.44
- EC50 [5]: 23 pM
- EC50 [6]: 172 pM
- absorbance at 450 nm [7]: 1.3 and 1.31
- absorbance at 450 nm [8]: 0.09 and 0.097
- absorbance at 450 nm [9]: 0.06
- absorbance at 450 nm [10]: 3.58 and 3.55
- absorbance at 450 nm [11]: 0.08
- EC50 [12]: 349 pM
- absorbance at 450 nm [13]: 1.19 and 1.1
- absorbance at 450 nm [14]: 0.479 and 0.412
- EC50 [15]: 150 pM
- EC50 [16]: 349 pM
- absorbance at 450 nm [17]: 0.75 and 0.79
- EC50 [18]: 150 pM
- EC50 [19]: 172 pM
- absorbance at 450 nm [20]: 1.28 and 1.3
- absorbance at 450 nm [21]: 2.21 and 2.15
- EC50 [22]: 23 pM
- EC50 [23]: 90 pM
- absorbance at 450 nm [24]: 0.492 and 0.442
- EC50 [25]: 2610 pM
- absorbance at 450 nm [26]: 0.32 and 0.31
- EC50 [27]: 90 pM
- absorbance at 450 nm [28]: 0.08 and 0.089
- absorbance at 450 nm [29]: 0.893 and 0.682
- absorbance at 450 nm [30]: 0.33 and 0.3
- absorbance at 450 nm [31]: 0.048 and 0.051
- EC50 [32]: 1070 pM
- absorbance at 450 nm [33]: 1.17 and 1.2
- absorbance at 450 nm [34]: 0.127 and 0.136
- absorbance at 450 nm [35]: 0.84 and 0.76
- absorbance at 450 nm [36]: 0.683 and 0.735
- absorbance at 450 nm [37]: 0.909 and 0.793
- absorbance at 450 nm [38]: 1.82 and 2.05
- absorbance at 450 nm [39]: 0.223 and 0.219
- absorbance at 450 nm [40]: 0.826 and 0.55
